Results taken from article PMC11570452, “MOTS-c modulates skeletal muscle function by directly binding and activating CK2” (iScience, 2024).
Each block holds one binder with its values, some of them ahead of it.

Target: T1, CK2α (recombinant, GenScript) (UniProt P68400 1-391)
T1 construct: CK2α, catalytic alpha subunit of casein kinase II; No catalogue number, species or construct is printed; also called CK2α subunit; CK2 alpha; source: bought: GenScript
Assay: SPR; Biacore T200; MOTS-c or K14Q MOTS-c (10 μg/mL, 10 mM sodium acetate pH 5.0) immobilised on CM5 chip (278 RU and 193 RU); first 70 nM CK2α or CK2β, then CK2α at 2.5, 5.0, 10 and 20 nM flowed at 30 μL/min in 0.01 M HEPES, 0.15 M NaCl, 0.3 mM EDTA, 0.05% tween
Conditions: both partners purified

T1 sequence (P68400 whole entry): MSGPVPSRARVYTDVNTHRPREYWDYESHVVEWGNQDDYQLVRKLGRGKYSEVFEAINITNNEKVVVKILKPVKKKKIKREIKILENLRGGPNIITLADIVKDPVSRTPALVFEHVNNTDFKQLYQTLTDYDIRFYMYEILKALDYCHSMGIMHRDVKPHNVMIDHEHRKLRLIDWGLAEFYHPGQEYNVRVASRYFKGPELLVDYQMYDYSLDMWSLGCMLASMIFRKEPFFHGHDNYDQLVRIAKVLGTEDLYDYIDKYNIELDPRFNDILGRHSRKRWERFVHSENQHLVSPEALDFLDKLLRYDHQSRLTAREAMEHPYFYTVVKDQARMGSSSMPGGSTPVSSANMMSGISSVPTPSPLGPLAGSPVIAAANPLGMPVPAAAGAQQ

Kd: 1 nM
B1: MOTS-c (mitochondrial open reading frame of the 12S ribosomal RNA type-c), wild type (peptide)
peptide: MRWQEMGYIFYPRKLR
notes: MOTS-c, human, 16-amino acid microprotein encoded in the mitochondrial 12S rRNA region; also called WT MOTS-c; synthetic MOTS-c; source: synthetic peptide, bought: GenScript; for the co-IP injected into mice (7.5 mg/kg) and found in tissue lysate

Kd: 16.2 nM
B2: K14Q MOTS-c (naturally occurring MOTS-c variant) (peptide, UniProt A0A0C5B5G6 1-16, looked up)
peptide: MRWQEMGYIFYPRQLR
notes: MOTS-c, human, natural variant m.1382A>C causing K14Q; source: synthetic peptide, bought: GenScript
